Experimental data as given in patent WO2018178074A1 (dated 2018).

B1: 25G7 x FAP 3+3 (bispecific antibody)
chain: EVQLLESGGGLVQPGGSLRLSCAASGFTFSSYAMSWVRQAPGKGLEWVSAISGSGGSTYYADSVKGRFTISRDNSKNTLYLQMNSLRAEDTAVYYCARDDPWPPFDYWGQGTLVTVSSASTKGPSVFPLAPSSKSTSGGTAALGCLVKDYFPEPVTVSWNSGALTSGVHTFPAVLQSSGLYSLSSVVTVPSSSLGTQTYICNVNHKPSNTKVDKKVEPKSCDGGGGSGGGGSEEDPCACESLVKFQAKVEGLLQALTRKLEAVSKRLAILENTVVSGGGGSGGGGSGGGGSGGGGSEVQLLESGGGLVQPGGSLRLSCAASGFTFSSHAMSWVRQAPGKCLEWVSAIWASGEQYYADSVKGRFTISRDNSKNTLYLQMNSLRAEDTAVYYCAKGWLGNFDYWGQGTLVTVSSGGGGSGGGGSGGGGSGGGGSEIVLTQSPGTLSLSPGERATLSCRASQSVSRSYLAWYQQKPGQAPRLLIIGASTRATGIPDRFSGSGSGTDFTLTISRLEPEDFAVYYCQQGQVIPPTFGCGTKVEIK
light: SSELTQDPAVSVALGQTVRITCQGDSLRSYYASWYQQKPGQAPVLVIYGKNNRPSGIPDRFSGSSSGNTASLTITGAQAEDEADYYCNSLDRRGMWVFGGGTKLTVRTVAAPSVFIFPPSDEQLKSGTASVVCLLNNFYPREAKVQWKVDNALQSGNSQESVTEQDSKDSTYSLSSTLTLSKADYEKHKVYACEVTHQGLSSPVTKSFNRGEC
notes: Trimer of three CMP chains, each paired with an anti-4-1BB light chain; no Fc; also called 3+3 25G7/28H1
B2: 12B3 huIgG1 P329G LALA (antibody, V domains shown)
VH: QVQLVQSGAEVKKPGSSVKVSCKASGGTFSSYAISWVRQAPGQGLEWMGGIIPIFGTANYAQKFQGRVTITADKSTSTAYMELSSLRSEDTAVYYCARSEFRFYADFDYWGQGTTVTVSS
VL: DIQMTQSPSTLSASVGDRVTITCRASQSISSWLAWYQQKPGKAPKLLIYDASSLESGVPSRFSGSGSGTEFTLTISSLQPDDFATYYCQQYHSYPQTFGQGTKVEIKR
notes: Human IgG1 with Pro329Gly, Leu234Ala, Leu235Ala; also called 12B3 hulgGI P329G LALA; parental huIgG1 P329G LALA 12B3
B3: 25G7 huIgG1 P329G LALA (antibody, V domains shown)
VH: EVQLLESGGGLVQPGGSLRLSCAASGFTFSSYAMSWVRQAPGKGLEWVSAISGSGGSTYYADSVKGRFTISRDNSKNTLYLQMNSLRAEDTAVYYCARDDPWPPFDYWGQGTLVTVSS
VL: SSELTQDPAVSVALGQTVRITCQGDSLRSYYASWYQQKPGQAPVLVIYGKNNRPSGIPDRFSGSSSGNTASLTITGAQAEDEADYYCNSLDRRGMWVFGGGTKLTVLG
notes: Human IgG1 with Pro329Gly, Leu234Ala, Leu235Ala; also called 25G7 hulgGI P329G LALA; parental huIgG1 P329G LALA 25G7

Assays:
human 4-1BB on cells = biological target: T1, human 4-1BB on cells (human, UniProt Q07011 24-255); experiment: flow cytometry on activated human PBMC (legend of Figure 14)
T1 construct: also called human 4-1BB on NF-kB-luciferase human-4-1BB HeLa clone 26 cells

human FAP on cells = biological target: T2, human FAP on cells (human, UniProt Q12884 1-760); experiment: flow cytometry on NIH/3T3-huFAP clone 39 cells
T2 construct: Natural FAP of the melanoma line WM266-4, or human FAP from vector pETR4921 in NIH/3T3 cells; also called huFAP on WM266-4 cells; human FAP on NIH/3T3-huFAP clone 39 cells

[1] = biological target: T3, human FAP (soluble, second analyte in SPR) (human, UniProt Q12884 26-760); experiment: SPR Biacore T200, biotinylated human 4-1BB Fc(kih) on SA chip, construct 200 nM, then human FAP 500 nM
T3 construct: also called human FAP protein

T1 sequence (Q07011 24-255 limits assumed): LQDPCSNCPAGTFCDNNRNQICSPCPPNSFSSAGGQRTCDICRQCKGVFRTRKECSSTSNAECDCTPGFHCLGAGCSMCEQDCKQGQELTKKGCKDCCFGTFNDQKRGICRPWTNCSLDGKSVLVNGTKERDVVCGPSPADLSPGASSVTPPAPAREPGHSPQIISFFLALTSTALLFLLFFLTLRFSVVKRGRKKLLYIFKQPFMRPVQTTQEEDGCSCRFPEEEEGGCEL

| Binder | binding result (human 4-1BB on cells) | binding result (human FAP on cells) | binding result [1] |
| --- | --- | --- | --- |
| B1 | binds | binds | binds |
| B2 | – | no binding | – |
| B3 | – | no binding | – |
